B1: unnamed (parent)
chain 1: MHFSIPETESRSGDSGGSAYVAYNIHVNGVLHCRVRYSQLLGLHEQLRKEYGANVLPAFPPKKLFSLTPAEVEQRREQLEKYMQAVRQDPLLGSSETFNSFLRRAQQETQQVPTEEVSLEVLLSNGQKVLVNVLTSDQTEDVLEAVAAKLDLPDDLIGYFSLFLVREKEDGAFSFVRKLQEFELPYVSVTSLRSQEYKIVLRKSYWDSAYDDDVMENRVGLNLLYAQTVSDIERGWILVTKEQHRQLKSLQEKVSKKEFLRLAQTLRHYGYLRFDACVADFPEKDCPVVVSAGNSELSLQLRLPGQQLREGSFRVTRMRCWRVTSSVPLPSGSTSSPGRGRGEVRLELAFEYLMSKDRLQWVTITSPQAIMMSICLQSMVDELMVKKSGGSIRKMLRRRVGGTLRRSDSQQAVKSPPLLESPDATRESMVKLSSKLSAVSLRGIGSPSTDASASDVHGNFAFEGIGDEDL
chain 2: not shown

The source of these data is paper PMC11772769, “Selective cargo and membrane recognition by SNX17 regulates its interaction with Retriever” (EMBO Reports, 2024).

The variants in the test derive from B1. Briefly: fluorescence anisotropy. Particulars: with partner chain of the complex shown; 5-FAM-labeled L2 14-mer peptide. On the technique in general: Fluorescence polarisation rises when a labelled molecule tumbles more slowly, as on binding a larger partner.
In general, Kd refers to a measure of binding affinity in units of concentration. In the case of chain 1 W321A, the equilibrium dissociation constant (Kd) came out at 76 µM.

As to chain 1 H457A, the Kd was 1.1 µM.
